Source: article PMC9943661, “8-Oxoguanine targeted by 8-oxoguanine DNA glycosylase 1 (OGG1) is central to fibrogenic gene activation upon lung injury”

What was measured:
[1] = target: T1, SMAD3 (UniProt P84022 1-425); assay: EMSA; 10 mM HEPES pH 7.9, 10 mM KCl, 1.5 mM MgCl2, 1 mM DTT, 5% glycerol, 20 nM Cy5-DNA, on ice; 6% PAGE at 4 C; settings: protein: recombinant; label: 5'-Cy5 on strand 1; blunt
[2] = target: OGG1 (UniProt O15527 1-345); assay: as above; settings: protein: commercial; tags: His; label: 5'-Cy5 on strand 1; blunt
[3] = target: T1, SMAD3; assay: EMSA; OGG1 + TH2840 (no decrease); 10 mM HEPES pH 7.9, 10 mM KCl, 1.5 mM MgCl2, 1 mM DTT, 5% glycerol, 20 nM Cy5-DNA, on ice; 6% PAGE at 4 C; settings: protein: recombinant; label: 5'-Cy5 on strand 1; blunt
[4] = target: SMAD2 (UniProt Q15796 1-467); assay: EMSA; with OGG1 100 nM, SMAD2 800 nM; shift increased; 10 mM HEPES pH 7.9, 10 mM KCl, 1.5 mM MgCl2, 1 mM DTT, 5% glycerol, 20 nM Cy5-DNA, on ice; 6% PAGE at 4 C; settings: protein: recombinant; label: 5'-Cy5 on strand 1; blunt
Sequence of SMAD2 (Q15796 whole entry): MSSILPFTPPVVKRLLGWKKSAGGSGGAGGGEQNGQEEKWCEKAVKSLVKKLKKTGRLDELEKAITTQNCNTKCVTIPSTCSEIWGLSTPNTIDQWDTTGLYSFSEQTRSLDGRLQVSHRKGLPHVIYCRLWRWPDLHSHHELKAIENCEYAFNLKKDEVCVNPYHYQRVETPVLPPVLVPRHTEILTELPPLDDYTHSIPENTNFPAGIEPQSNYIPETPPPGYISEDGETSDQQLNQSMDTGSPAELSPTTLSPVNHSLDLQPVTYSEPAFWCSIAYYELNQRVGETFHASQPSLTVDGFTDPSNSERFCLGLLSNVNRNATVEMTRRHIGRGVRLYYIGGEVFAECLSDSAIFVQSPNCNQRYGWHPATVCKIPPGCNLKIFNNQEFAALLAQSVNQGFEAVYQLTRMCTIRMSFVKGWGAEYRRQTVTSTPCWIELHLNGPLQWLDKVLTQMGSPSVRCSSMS

Sequence of OGG1 (O15527 whole entry): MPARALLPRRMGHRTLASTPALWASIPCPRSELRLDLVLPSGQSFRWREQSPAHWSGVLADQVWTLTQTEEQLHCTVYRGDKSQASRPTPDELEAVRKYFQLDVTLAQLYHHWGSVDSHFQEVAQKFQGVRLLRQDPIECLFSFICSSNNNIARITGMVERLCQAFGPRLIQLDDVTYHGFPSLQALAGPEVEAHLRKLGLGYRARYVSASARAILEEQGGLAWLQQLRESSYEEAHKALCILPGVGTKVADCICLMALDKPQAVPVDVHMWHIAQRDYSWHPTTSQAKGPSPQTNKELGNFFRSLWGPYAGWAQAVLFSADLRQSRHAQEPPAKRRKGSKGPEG
T1 sequence (P84022 whole entry): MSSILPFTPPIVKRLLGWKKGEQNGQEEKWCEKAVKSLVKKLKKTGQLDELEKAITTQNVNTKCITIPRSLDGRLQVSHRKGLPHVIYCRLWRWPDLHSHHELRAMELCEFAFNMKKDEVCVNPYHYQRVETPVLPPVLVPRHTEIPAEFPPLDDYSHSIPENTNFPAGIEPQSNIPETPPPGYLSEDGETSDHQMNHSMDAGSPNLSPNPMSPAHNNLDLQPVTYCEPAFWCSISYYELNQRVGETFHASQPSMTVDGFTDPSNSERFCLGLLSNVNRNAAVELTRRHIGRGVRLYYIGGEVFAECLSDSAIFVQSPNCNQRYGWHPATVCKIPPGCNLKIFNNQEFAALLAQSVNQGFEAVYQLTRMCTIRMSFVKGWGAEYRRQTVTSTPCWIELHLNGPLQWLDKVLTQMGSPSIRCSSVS

Row | Binder | binding result [1] | binding result [2] | binding result [3] | binding result [4]
1 | G'1 (dsDNA, 8-oxoG at strand 1 position 6) DNA 1: CCCCAGGGTGAGCCCAGCTCAGACTATCATCCGGAAAGCCCCCAAAAGTCCCAGCCC DNA 2: GGGCTGGGACTTTTGGGGGCTTTCCGGATGATAGTCTGAGCTGGGCTCACCCTGGGG | binds | binds | – | –
2 | G (dsDNA) DNA 1: CCCCAGGGTGAGCCCAGCTCAGACTATCATCCGGAAAGCCCCCAAAAGTCCCAGCCC DNA 2: GGGCTGGGACTTTTGGGGGCTTTCCGGATGATAGTCTGAGCTGGGCTCACCCTGGGG | binds | – | – | –
3 | G'2 (dsDNA, 8-oxoG at strand 2 position 6 from its 5' end) DNA 1: CCCCAGGGTGAGCCCAGCTCAGACTATCATCCGGAAAGCCCCCAAAAGTCCCAGCCC DNA 2: GGGCTGGGACTTTTGGGGGCTTTCCGGATGATAGTCTGAGCTGGGCTCACCCTGGGG | binds | binds | – | –
4 | G'3 (dsDNA, 8-oxoG at strand 2 position 43 from its 5' end (opposite strand 1 position 15)) DNA 1: CCCCAGGGTGAGCCCAGCTCAGACTATCATCCGGAAAGCCCCCAAAAGTCCCAGCCC DNA 2: GGGCTGGGACTTTTGGGGGCTTTCCGGATGATAGTCTGAGCTGGGCTCACCCTGGGG | – | binds | binds | binds
